Results from patent US7811569 (INSTITUT PASTEUR, dated 2010).

T1: synthetic peptide MSP-3190-217 (Plasmodium falciparum)
T1 peptide: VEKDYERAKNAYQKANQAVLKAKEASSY

T2: synthetic peptide MSP-3211-237 (Plasmodium falciparum)
T2 construct: also called MSP-3b
T2 peptide: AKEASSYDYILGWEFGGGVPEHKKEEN

B1: RAM3 Fab-ΔpIII (Fab, V domains shown)
VH: QVQLVQSGGGVVQPGRSLRLSCAASGFTFSSYAMHWVRQAPGKGLEWVAVISYDGSNKYYADSVKGRFTISRDNSKNTLYLQMNSLRAEDKAVYYCARDSGGIAARLGGYFDLWGRGTTVTVSS
VL: DIRMTQSPSFLSASVGDRVTITCRASQGISSYLAWYQQKPGKAPKLLIYAASTLQSGVPSRFSGSGSGTEFTLTISSLQPEDFATYYCQQGPTFGGGTKVEIKR
notes: Human Fab made in E. coli from pFAB73H; VH is joined to human gamma 1 CH1 (residues 118 to 230), then a spacer with a trypsin site and truncated f1 phage pIII (ΔpIII); The light chain is VK plus human kappa constant domain; also called Fab-ΔpIII RAM3; RAM3 in the Fab-ΔpIII format
B2: RAM1 Fab-ΔpIII (Fab, V domains shown)
VH: QVQLVQSGGGVVQPGRSLRLSCAASGFTFSSYAMHWVRQAPGKGLEWVAVISYDGSNKYYADSVKGRFTISRDNSKNTLYLQMSSLRAEDTAVYYCVKGASSWSTGTLVTVSS
VL: DIVMMQSPATLSASVGDRVTITCRASQSISSWLAWYQQKPGKAPNLLIYKASSLESGVPSRFSGSGSGTEFTLTISSLQPDDFATYYCQQYKSFPYTFGQGTRLEIKR
notes: Human Fab made in E. coli from pFAB73H; VH is joined to human gamma 1 CH1 (residues 118 to 230 of the H chain), then a spacer with a trypsin cleavage site and truncated f1 phage protein pIII (ΔpIII); The light chain is VK plus human kappa constant domain; also called Fab-ΔpIII RAM1; RAM1 in the Fab-ΔpIII format
B3: RAM1 IgG1 (antibody, V domains shown)
VH: B2 VH
VL: B2 VL
notes: Intact human IgG1 kappa, allotype G1m(a,z), made in CHO cells from pLNOH2 and pLNOK; also called IgG1 anti-MSP3; RAM1 in the IgG1 format
B4: recombinant MSP-3194-257 (other)
chain: HERAKNAYQKANQAVLKAKEASSYDYILGWEFGGGVPEHKKEENMLSHLYVSSKDKENISKENE
notes: also called panning antigen
B5: RAM2 Fab-ΔpIII (Fab, V domains shown)
VH: QVQLQESGGGLVKPGGSLKLSCAASGFTFSSYGMSWVRQTPDKRLEWVATISSGGSYTYYPDSVKGRFTISRDNAKNTLYLQMSSLKSEDTAMYYCARLYYGYRYYFDYWGQGTMVTVSS
VL: DIQLTQSPSSLSASIGDRVTITCQASQDITNSLNWYQQRPGQAPKLLIYDAFTLKTGVPSRFSGRGSGTSFTIAINSFQAEDIGTYFCQQSHRVPFTFGGGTRVEIKR
notes: Human Fab made in E. coli from pFAB73H; VH is joined to human gamma 1 CH1 (residues 118 to 230), then a spacer with a trypsin site and truncated f1 phage pIII (ΔpIII); The light chain is VK plus human kappa constant domain; also called Fab-ΔpIII RAM2; RAM2 in the Fab-ΔpIII format
B6: RAM2 IgG1 (antibody, V domains shown)
VH: B5 VH
VL: B5 VL
notes: Intact human IgG1 kappa, allotype G1m(a,z), made in CHO cells

Columns and labels:
[1] = target: T3, native MSP-3 antigen of Plasmodium falciparum clone 3D7 schizonts and merozoites (Plasmodium falciparum); experiment: flow cytometry on ethanol-fixed permeabilized schizonts, FITC anti-human Fab
T3 construct: whole, on cells; The motif 220-230 is also present in MSP-6; also called native malaria antigen; parasite proteins
Protocol: The gating was placed to include the majority of the infected cells. The gating was used for the histograms described below.
Parasites were then washed in PBS with 1% BSA, incubated over night with antibody (Fab-ΔpIII or IgG1), washed twice with PBS supplemented with 1% BSA and incubated for 30 minutes with FITC-conjugated goat anti-human Fab (Sigma F5512) diluted 1:25. Cells were analyzed in a Coulter EPICS-2 flow cytometer. Hib-CP specific antibody was used as control in corresponding concentrations.

[2] = target: B5; experiment: antigen competition ELISA; soluble antigen 4 nM to 1250 nM against coated MSP-3194-257
[3] = target: B4; experiment: direct ELISA, coated recombinant antigen
[4] = target: T1, synthetic peptide MSP-3190-217; experiment: ELISA on synthetic peptides
[5] = target: T2, synthetic peptide MSP-3211-237; experiment: ELISA on synthetic peptides

Binder	percent of events under the bar M1 [1]	further results
B1	4%	
B2	76%	
B3	47%	
B4		binding result [2]: binds
B5	28%	binding result [3]: binds
B6		binding result [4]: binds; binding result [5]: binds
